The record followed here is publication PMC7588053, “Cholesterol oxidase from Rhodococcus erythropolis with high specificity toward β-cholestanol and pytosterols” (PLoS ONE, 2020).

Substrate in this series: CC(C)CCC[C@@H](C)[C@H]1CC[C@H]2[C@@H]3CC=C4C[C@@H](O)CC[C@]4(C)[C@H]3CC[C@]12C
The series can be described thus: purified protein. In kind it is biochemical, Rhodococcus erythropolis. The settings on record: O2 as co-substrate, 0-1 mM cholesterol, 50 mM sodium phosphate pH 7.0, 64 mM sodium cholate, 0.34% Triton X-100, 30°C.

B1: ChoRII (Rhodococcus erythropolis PR4) (protein)
chain: VPWGSASTIAPPPGFPSDIPLSQQAYANWSREIMLESVWTATARHSDDVVTLANWAFDNGYTVRAKGTMHGWSPLTVVPGAPSDRVLLVDTMANLNSVVVQHGTPATVTAGAGASIEAILTALEREGLGWANAPAIGELSIAGALAIGAHGATYPAVGETITPGQSYGSLSNLITEITVVAWDEGRNRYGLKTFHRSDDEITAFLTHLGRTFVTSVTLQAGENYRLRCRSFTDIPWQELFAAPGSPGRTYESFVEKSGRVEAIWFPFTQTPWLKVWTPTPVKPPESREVSGPYNYFFSDAIPEEVTTPLGMVAQGLQAATPLFGASQFGAVAAGLALTDTDDLWGWSKDVLFYLRHTTLRVVAGGGAVITKRSNIGRVVHEMTSWLNERMTHYASLGQYPVNMPFEVRLCGVDDSGEVLVDSAGVPDLSAVRPRADRQDWDTAIWMNVVSIPGTAGLPAFLREMERWMVANYSGDYATFRPEWSKGWAFTDQAAYQDDEFLTSTVPATFRAGGDGNWDFALATLDEHDPHRVFSNTFIDRVLPPS
notes: predicted mature enzyme, Tat signal peptide removed (Val-45 given, but 545 aa given would mean start at 44), C-terminal 6xHis kept, pET-21b(+), E. coli Rosetta (DE3) pLysS; precursor 588 aa, mature 59,369 Da; VAO family flavoenzyme (FAD)
On to B1, for which the Michaelis-Menten constant (Km) was 22.1 ± 0.3 µM, the Vmax was 0.57 µmol/min/mg, the kcat worked out at 0.61 ± 0.11 s⁻¹ and the kcat/Km is 30000 ± 10000 M⁻¹ s⁻¹.

B2: ChoRI (Rhodococcus erythropolis PR4) (protein)
chain: VPAGSSGSAGGPVSTLTPPPAFPEGIALYQQAYQNWSKEIMLDAIWTCSPKTPEDVVRLANWGHANGYTIRPRGAMHGWTPLTIVNGAPVDKVILADTTVHLTGVSVNAGGSPATVTAGPGATLDAITTALQAQGLGFANLPAPGVLTIAGCLAVDAHGAALPAEGEAHVPGQTFGSLSNLVTSLTAVVWNGSEYALETYARSDAAIKPLLTHLGRTFLTSVTLQAAPNYRMRCVSHTDIGWQELFGARGASGRTFEKFVRENGRAEAIWYPFTERPWMKVWSLAPTKPPFSREVTGPYNYIFSDNLPEPVTDMIGQINAGNPGIAPAFGQIMYATTVAGLAATFSNDLWGWSKDVQFYIRATTLRLTEGGGAVITSRANIGQVIHDFTQWFNGRMEYYRSIGQFPLNGPVEIRCCGLDQPSDVEVDSAGAPTISAMRPRPDHPEWDTAIWLNVLGVPGTPGMFAFYREMEQWMRNHYNNNDATFRPEWSKGWAFGPDKPYTDAPIITQGLPQTYRDGVPSSDNWDTANAAYNALDPHKVFSNTFLDQLLP
notes: predicted mature enzyme, Tat signal peptide removed (from Val-37), C-terminal 6xHis kept, pET-21b(+), E. coli Rosetta (DE3) pLysS; precursor 587 aa, mature 551 aa, 59,590 Da; VAO family flavoenzyme (FAD)
On to B2, for which the Michaelis constant (Km) is 22.6 ± 0.5 µM, the Vmax turned out to be 6.4 µmol/min/mg, the kcat came to 6.8 ± 0.3 s⁻¹ and the specificity constant (kcat/Km) was 300000 ± 10000 M⁻¹ s⁻¹.
